Molecular target: mouse rec1c sNASP variant protein (V281I, L282F) (mouse)
Assay: BLI; Octet K2, 30 C; sNASP WT or variant immobilised on aminopropylsilane (APS) biosensors, histones in assay buffer at various concentrations (62.5 to 1,000 nM shown for H4), association 240 s; n = 4

Substance | Kd [nM] | kon [M⁻¹ s⁻¹]
mouse histone H4 (from UniProt P62806 1-103) (natural protein) | 23.2 | 15900
mouse H3.1/H4 tetramer complex (from UniProt P68433 1-136; P62806 1-103) | 14.5 | 37200
